Assay results from patent US20050191294A1 (University of Texas, published 2005).

T1: IL-11Rα of human prostate cancer cells (LNCaP, MDA-PCa-2b) and human prostate cancer tissue sections (human, UniProt Q14626 23-422)
T1 construct: whole, on cells; Endogenous receptor; used both for cell assays and for tissue section overlays; also called IL-11 receptor alpha; interleukin-11 receptor alpha
T1 sequence (looked up): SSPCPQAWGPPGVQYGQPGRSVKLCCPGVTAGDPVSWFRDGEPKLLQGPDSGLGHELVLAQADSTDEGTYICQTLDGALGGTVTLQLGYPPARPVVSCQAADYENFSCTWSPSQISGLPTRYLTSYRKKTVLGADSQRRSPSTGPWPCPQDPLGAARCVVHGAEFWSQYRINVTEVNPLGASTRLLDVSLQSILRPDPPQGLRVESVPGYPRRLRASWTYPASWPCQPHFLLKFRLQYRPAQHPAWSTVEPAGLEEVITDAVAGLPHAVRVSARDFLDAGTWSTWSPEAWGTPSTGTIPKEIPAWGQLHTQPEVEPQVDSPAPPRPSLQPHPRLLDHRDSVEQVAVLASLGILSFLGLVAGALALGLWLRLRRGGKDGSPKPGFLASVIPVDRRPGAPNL

B1: WIFPWIQL (SEQ ID NO:6)-phage (peptide)
peptide: WIFPWIQL
notes: whole phage particles stood in the assay; also called GRP78-targeting phage clone; not shown: pIII coat protein of fd-based phage (fUSE5 vector)
B2: WDLAWMFRLPVG (SEQ ID NO:7)-phage (peptide)
peptide: WDLAWMFRLPVG
notes: as for B1
B3: CGRRAGGSC (SEQ ID NO:1)-displaying phage (peptide, not shown: large carriers)
peptide: CGRRAGGSC
notes: whole phage particles stood in the assay; also called IL-11-mimic phage; IL-11 mimic phage

Legend:
[1] = molecular target: T2, recombinant GRP78 (Stressgen); test: phage binding to GRP78 immobilized on microtiter wells, 10^9 TU, bound TU counted
T2 construct: Bought protein; also called Glucose-regulated protein-78; immobilized GRP78
T2 sequence (P07823 19-654): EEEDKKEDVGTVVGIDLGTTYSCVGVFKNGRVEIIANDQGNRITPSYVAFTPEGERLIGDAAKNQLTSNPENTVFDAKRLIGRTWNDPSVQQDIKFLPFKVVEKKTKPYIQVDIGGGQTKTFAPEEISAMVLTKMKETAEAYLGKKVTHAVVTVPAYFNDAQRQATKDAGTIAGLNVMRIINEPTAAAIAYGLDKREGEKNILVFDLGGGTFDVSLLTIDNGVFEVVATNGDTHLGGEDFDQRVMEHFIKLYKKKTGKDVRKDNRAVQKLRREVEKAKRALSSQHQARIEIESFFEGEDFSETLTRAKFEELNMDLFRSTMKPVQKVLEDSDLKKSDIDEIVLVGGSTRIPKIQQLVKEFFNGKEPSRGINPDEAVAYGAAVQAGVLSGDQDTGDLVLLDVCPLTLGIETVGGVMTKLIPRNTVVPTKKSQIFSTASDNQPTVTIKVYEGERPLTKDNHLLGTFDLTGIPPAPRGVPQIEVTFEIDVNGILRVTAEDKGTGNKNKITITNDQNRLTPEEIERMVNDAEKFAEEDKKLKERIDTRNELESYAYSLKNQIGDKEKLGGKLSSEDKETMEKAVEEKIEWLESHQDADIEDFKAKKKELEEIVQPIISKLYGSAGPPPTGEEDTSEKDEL
Description: In vitro phage binding assays. GRP78, HSP70, HSP90 (all from Stressgen, Victoria, Canada) and bovine serum albumin (BSA) were immobilized on microtiter wells of 96-well plates overnight at 4° C. Wells were washed twice with phosphate-buffered saline (PBS), blocked with PBS containing 3% BSA for 1 hour at room temperature (RT), and incubated with 10⁹ transducing units (TU) of […] (SEQ ID NO:6)-phage, […] (SEQ ID NO:7)-phage, or insertless control phage (Fd-tet) in 50 μl of PBS containing 1.5% BSA. After 2 hours at RT, wells were washed with PBS, and bound phage were recovered by infection with host bacteria (log-phase Escherichia coli K91 kan; OD₆₀₀≈2). Aliquots of the bacterial culture were plated onto Luria-Bertani broth (LB) agar plates supplemented with 40 μg/ml tetracycline and 100 μg/ml kanamycin. Plates were incubated overnight at 37° C., and phage TU were counted in triplicate plates. Increasing concentrations of synthetic peptides […] (SEQ ID NO:6), […] (SEQ ID NO:7)-, and an unrelated control peptide CARAC (SEQ ID NO:9) (Genemed Synthesis Inc., San Francisco, Calif.) were used to evaluate competitive inhibition of phage binding. All peptides were solubilized in a standard stock solution of 10% dimethylsulfoxide (DMSO) and diluted to working concentrations for the assays.
Peptide aptamers bind specifically to immobilized GRP78. […]

[2] = molecular target: T3, GRP78 of human prostate cancer cells (DU145 cell surface; human prostate cancer bone metastasis sections) (human, UniProt P11021 19-654); test: BRASIL aqueous-organic phase separation, phage on intact DU145 cells
T3 construct: whole, on cells; Endogenous protein; used for the intact-cell (BRASIL) assay and for tissue section overlays; also called GRP78 expressed on the membrane of the prostate cancer cells
T3 sequence (P11021 19-654): as the sequence (P07823 19-654) above, with F295Y, S631A counted along it
Description: Cell-binding assays. Biopanning and Rapid Analysis of Selective Interactive Ligands (BRASIL) method was used to evaluate phage binding to intact cells. In brief, cultured human prostate cancer-derived DU 145 cells were detached with ethylenediaminetetraacetate (EDTA) and resuspended in Dulbecco's modified Eagle's medium (DMEM) containing 1% BSA at 4×10⁶ cells per ml. The cell suspension (50 μl) was incubated with 10⁹ of […] (SEQ ID NO:6)—phage, […] (SEQ ID NO:7)—phage, or insertless Fd-tet phage (negative control) at 4° C. in constant slow rotation. After 2 hours, the phage/cell mixture (aqueous phase) was gently transferred to the top of a non-miscible organic phase (200 μl solution in a 400 μl Eppendorf tube) consisting of dibutyl phtalate:cyclohexane (9:1 [v:v]; d=1.03 g ml⁻¹) and centrifuiged at 10,000 g for 10 minutes at 4° C. The tube was then snap frozen in liquid nitrogen, the bottom of the tube was sliced off, and the cell-phage pellet was isolated. Cell membrane bound phage were recovered by infection with the host bacteria.
GRP78-binding phage clones bind specifically to prostate cancer cells. Having determined the binding specificity of aptamers to GRP78 in vitro, the binding of filamentous phage clones displaying […] […] (SEQ ID NO:7) (FIG. 5B) 580 to intact DU145 human prostate cancer cells by using an aqueous-organic phase separation was evaluated. […]

[3] = molecular target: T1, IL-11Rα of human prostate cancer cells …; test: phage overlay on human prostate cancer tissue sections, compared with anti-IL-11Rα antibody staining

| Binder | fold binding over negative control phage (fd-tet) [1] | fold binding over control phage (fd-tet) [2] | binding result [3] |
| --- | --- | --- | --- |
| B1 | 870 fold | 30 fold |  |
| B2 | 260 fold | 30 fold |  |
| B3 |  |  | binds |
